Assay results: US20240034774A1 (Gilead, published 2024)

Assays:
BSA = BSA (UniProt P02769 25-607); assay: single-point ELISA, BSA control
gp120 Bal = gp120 Bal (HIV (Bal)); assay: single-point ELISA at EC50 conc. of A-1
gp120 SHIV SF162 P3 = gp120 SHIV SF162 P3 (SHIV SF162 P3); assay: single-point ELISA at EC50 conc. of A-1
gp120 CAAN = gp120 CAAN (HIV (CAAN)); assay: single-point ELISA at EC50 conc. of A-1
[1] = molecular target: HIV-1 envelope glycoprotein gp120 of viral isolate 92US712 (HIV-1); assay: cell-based or functional assay
[2] = molecular target: HIV-1 envelope glycoprotein gp120 of viral isolate 92US657 (HIV-1); assay: cell-based or functional assay

B1: 1.35.36-1 (antibody, human IgG1, kappa)
heavy: QVQLVQSGAEVKKPGASVRVSCKASGYNIRDYFMHWWRQAPGQGLQWVGWINPKTGQPNNPRQFQGRVTMTRHASWDFDTFSFYMDLSRLRSDDTATYFCARQRTDYWDFDVWGQGTMVTVSSASTKGPSVFPLAPSSKSTSGGTAALGCLVKDYFPEPVTVSWNSGALTSGVHTFPAVLQSSGLYSLSSVVTVPSSSLGTQTYICNVNHKPSNTKVDKKVEPKSCDKTHTCPPCPAPELLAGPDVFLFPPKPKDTLMISRTPEVTCVVVDVSHEDPEVKFNWYVDGVEVHNAKTKPREEQYNSTYRVVSVLTVLHQDWLNGKEYKCKVSNKALPLPEEKTISKAKGQPREPQVYTLPPSREEMTKNQVSLTCLVKGFYPSDIAVEWESNGQPENNYKTTPPVLDSDGSFFLYSKLTVDKSRWQQGNVFSCSVLHEALHSHYTQKSLSLSPGK
light: DIQMTQSPSSLSASVGDRVTITCQANGYLNWYQQKPGKAPKLLIYDGSNLETGVPSRFSGSRWGQEYTLTISSLQPEDIATYFCQVYEFVTPGTNLDIKRTVAAPSVFIFPPSDEQLKSGTASVVCLLNNFYPREAKVQWKVDNALQSGNSQESVTEQDSKDSTYSLSSTLTLSKADYEKHKVYACEVTHQGLSSPVTKSFNRGEC
Question: For B1, which “ELISA A450” value (BSA) is on record?
Answer: 0.06 A450

Question: And the “ELISA A450” value (gp120 Bal)?
Answer: 0.85 A450

Question: What about the “ELISA A450” value (gp120 SHIV SF162 P3) of the same binder?
Answer: 0.56 A450

Question: What about the “ELISA A450” value (gp120 CAAN) of the same binder?
Answer: 0.67 A450

B2: 1.36.36-1 (antibody, human IgG1, kappa)
heavy: QVQLVQSGAEVKKPGASVRVSCKASGYNIRDYFMHWWRQAPGQGLQWVGWINPKTGQPNNPRQFQGRVTMTRHASWDFDTFSAYMDLSRLRSDDTATYFCARQRTDYWDFDVWGQGTMVTVSSASTKGPSVFPLAPSSKSTSGGTAALGCLVKDYFPEPVTVSWNSGALTSGVHTFPAVLQSSGLYSLSSVVTVPSSSLGTQTYICNVNHKPSNTKVDKKVEPKSCDKTHTCPPCPAPELLAGPDVFLFPPKPKDTLMISRTPEVTCVVVDVSHEDPEVKFNWYVDGVEVHNAKTKPREEQYNSTYRVVSVLTVLHQDWLNGKEYKCKVSNKALPLPEEKTISKAKGQPREPQVYTLPPSREEMTKNQVSLTCLVKGFYPSDIAVEWESNGQPENNYKTTPPVLDSDGSFFLYSKLTVDKSRWQQGNVFSCSVLHEALHSHYTQKSLSLSPGK
light: DIQMTQSPSSLSASVGDRVTITCQANGYLNWYQQKPGKAPKLLIYDGSNLETGVPSRFSGSRWGQEYTLTISSLQPEDIATYFCQVYEFVTPGTNLDIKRTVAAPSVFIFPPSDEQLKSGTASVVCLLNNFYPREAKVQWKVDNALQSGNSQESVTEQDSKDSTYSLSSTLTLSKADYEKHKVYACEVTHQGLSSPVTKSFNRGEC
Question: B2 was tested. Which “ELISA A450” value (BSA) did it give?
Answer: 0.06 A450

Question: What about the “ELISA A450” value (gp120 Bal) of the same binder?
Answer: 1.12 A450

Question: And the “ELISA A450” value (gp120 SHIV SF162 P3)?
Answer: 0.14 A450

Question: What about the “ELISA A450” value (gp120 CAAN) of the same binder?
Answer: 0.34 A450

B3: Antibody A-3 (antibody, human IgG1, kappa)
heavy: QVQLLQSGAAVTKPGASVRVSCEASGYNIRDYFIHWWRQAPGQGLQWVGWINPKTGQPNNPRQFQGRVSLTRHASWDFDTFSFYMDLKALRSDDTAVYFCARQRSDYWDFDVWGSGTQVTVSSASTKGPSVFPLAPSSKSTSGGTAALGCLVKDYFPEPVTVSWNSGALTSGVHTFPAVLQSSGLYSLSSVVTVPSSSLGTQTYICNVNHKPSNTKVDKKVEPKSCDKTHTCPPCPAPELLGGPDVFLFPPKPKDTLMISRTPEVTCVVVDVSHEDPEVKFNWYVDGVEVHNAKTKPREEQYNSTYRVVSVLTVLHQDWLNGKEYKCKVSNKALPAPEEKTISKAKGQPREPQVYTLPPSREEMTKNQVSLTCLVKGFYPSDIAVEWESNGQPENNYKTTPPVLDSDGSFFLYSKLTVDKSRWQQGNVFSCSVLHEALHSHYTQKSLSLSPGK
light: DIQMTQSPSSLSASVGDTVTITCQANGYLNWYQQRRGKAPKLLIYDGSKLERGVPSRFSGRRWGQEYNLTINNLQPEDIATYFCQVYEFVVPGTRLDLKRTVAAPSVFIFPPSDEQLKSGTASVVCLLNNFYPREAKVQWKVDNALQSGNSQESVTEQDSKDSTYSLSSTLTLSKADYEKHKVYACEVTHQGLSSPVTKSFNRGEC
Question: B3 was tested. Which “ADCC EC50, NK Donor 1” value [1] did it give?
Answer: 0.07 µg/mL

Question: And the “ADCC EC50, NK Donor 2” value [1]?
Answer: 0.08 µg/mL

Question: And the “ADCC EC50, NK Donor 3” value [1]?
Answer: 0.2 µg/mL

Question: What about the “ADCC Emax, NK Donor 1” value [1] of the same binder?
Answer: 77%

Question: And the “ADCC Emax, NK Donor 2” value [1]?
Answer: 59%

Question: What about the “ADCC Emax, NK Donor 3” value [1] of the same binder?
Answer: 67%

Question: What about the “ADCC EC50, NK Donor 1” value [2] of the same binder?
Answer: 0.68 µg/mL

Question: What about the “ADCC EC50, NK Donor 2” value [2] of the same binder?
Answer: 0.67 µg/mL

Question: What about the “ADCC EC50, NK Donor 3” value [2] of the same binder?
Answer: 1.39 µg/mL

Question: What about the “ADCC Emax, NK Donor 1” value [2] of the same binder?
Answer: 49%

Question: What about the “ADCC Emax, NK Donor 2” value [2] of the same binder?
Answer: 49%

Question: And the “ADCC Emax, NK Donor 3” value [2]?
Answer: 56%

B4: 1.33.36-1 (antibody, human IgG1, kappa)
heavy: QVQLVQSGAEVKKPGASVRVSCKASGYNIRDYFIHWWRQAPGQGLQWVGWINPKTGQPNNPRQFQGRVTLTRHASWDFDTFSFYMDLKALRSDDTATYFCARQRSDYWDFDVWGSGTQVTVSSASTKGPSVFPLAPSSKSTSGGTAALGCLVKDYFPEPVTVSWNSGALTSGVHTFPAVLQSSGLYSLSSVVTVPSSSLGTQTYICNVNHKPSNTKVDKKVEPKSCDKTHTCPPCPAPELLAGPDVFLFPPKPKDTLMISRTPEVTCVVVDVSHEDPEVKFNWYVDGVEVHNAKTKPREEQYNSTYRVVSVLTVLHQDWLNGKEYKCKVSNKALPLPEEKTISKAKGQPREPQVYTLPPSREEMTKNQVSLTCLVKGFYPSDIAVEWESNGQPENNYKTTPPVLDSDGSFFLYSKLTVDKSRWQQGNVFSCSVLHEALHSHYTQKSLSLSPGK
light: DIQMTQSPSSLSASVGDRVTITCQANGYLNWYQQKPGKAPKLLIYDGSNLETGVPSRFSGSRWGQEYTLTISSLQPEDIATYFCQVYEFVTPGTNLDIKRTVAAPSVFIFPPSDEQLKSGTASVVCLLNNFYPREAKVQWKVDNALQSGNSQESVTEQDSKDSTYSLSSTLTLSKADYEKHKVYACEVTHQGLSSPVTKSFNRGEC
Question: B4 was tested. Which “ELISA A450” value (BSA) did it give?
Answer: 0.06 A450

Question: And the “ELISA A450” value (gp120 Bal)?
Answer: 0.94 A450

Question: And the “ELISA A450” value (gp120 SHIV SF162 P3)?
Answer: 0.88 A450

Question: What about the “ELISA A450” value (gp120 CAAN) of the same binder?
Answer: 0.82 A450

B5: 1.34.36-1 (antibody, human IgG1, kappa)
heavy: QVQLVQSGAEVKKPGASVRVSCKASGYNIRDYFIHWWRQAPGQGLQWVGWINPKTGQPNNPRQFQGRVTLTRHASWDFDTFSFYMDLKALRSDDTAVYFCARQRTDYWDFDVWGSGTQVTVSSASTKGPSVFPLAPSSKSTSGGTAALGCLVKDYFPEPVTVSWNSGALTSGVHTFPAVLQSSGLYSLSSVVTVPSSSLGTQTYICNVNHKPSNTKVDKKVEPKSCDKTHTCPPCPAPELLAGPDVFLFPPKPKDTLMISRTPEVTCVVVDVSHEDPEVKFNWYVDGVEVHNAKTKPREEQYNSTYRVVSVLTVLHQDWLNGKEYKCKVSNKALPLPEEKTISKAKGQPREPQVYTLPPSREEMTKNQVSLTCLVKGFYPSDIAVEWESNGQPENNYKTTPPVLDSDGSFFLYSKLTVDKSRWQQGNVFSCSVLHEALHSHYTQKSLSLSPGK
light: DIQMTQSPSSLSASVGDRVTITCQANGYLNWYQQKPGKAPKLLIYDGSNLETGVPSRFSGSRWGQEYTLTISSLQPEDIATYFCQVYEFVTPGTNLDIKRTVAAPSVFIFPPSDEQLKSGTASVVCLLNNFYPREAKVQWKVDNALQSGNSQESVTEQDSKDSTYSLSSTLTLSKADYEKHKVYACEVTHQGLSSPVTKSFNRGEC
Question: What does the source list for B5?
Answer: ELISA A450 (BSA): 0.07 A450; ELISA A450 (gp120 Bal): 0.94 A450; ELISA A450 (gp120 SHIV SF162 P3): 0.77 A450; ELISA A450 (gp120 CAAN): 0.71 A450
